Here are results for one molecule from US20250215491, “SEQUENCING WITH SINGLE-STRANDED BINDING PROTEINS” (ILLUMINA, INC., published 2025).

Residue numbers refer to the chain shown, from its start.

Data set [1] concerns the target T1, Tth SSB (Rev 101) (Thermus thermophilus HB8, UniProt Q5SLP9 SEQ:21-283).
T1 sequence: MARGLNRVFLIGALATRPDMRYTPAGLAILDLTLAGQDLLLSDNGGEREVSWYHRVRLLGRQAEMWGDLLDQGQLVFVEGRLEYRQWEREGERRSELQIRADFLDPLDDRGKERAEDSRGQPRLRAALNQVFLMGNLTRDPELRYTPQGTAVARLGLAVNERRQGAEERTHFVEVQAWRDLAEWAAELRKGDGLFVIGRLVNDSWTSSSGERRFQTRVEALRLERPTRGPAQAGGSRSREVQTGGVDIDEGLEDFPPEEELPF
Nature of the data set: EMSA; Kd value only in FIG. 12; 50 mM Tris pH 7.5, 50 mM NaCl, 0.1 mM DTT, 60 C 10 min; 0.25 nM oligo; protein 0.1-4 uM. The conditions noted are these: chain copies: 2 (inferred); label: 5'-FAM. The protocol:
(§1) An electrophoretic mobility shift assay was used to determine the binding affinity (Kd) for the Tth F255P SSB and Tth SSB. An oligonucleotide of 35 bases labelled at the 5′ end with fluorescein (FAM) dye was used as the substrate. The sequence of the oligonucleotide is 5′ FAM GTGTAGATCTCGGTGGTCGCCGTATCATTAAAAAA (SEQ ID NO: 14). A titration of Tth F255P SSB or Tth SSB was used ranging from 0.1 to 4 μM. The reaction buffer was 50 mM Tris pH 7.5, 50 mM NaCl, and 0.1 mM DTT with each reaction utilizing […] of labelled oligonucleotide. The reactions were incubated at 60° C. for 10 minutes. The reactions were resolved on 10% acrylamide native TBE gel and imaged with Typhoon Scanner. The fraction of bound versus unbound for each concentration tested was determined and fitted for Kd analysis.
A general note: In EMSA bound probe runs differently from free probe, usually more slowly.

Data set [2] concerns the target T2, Tth SSB F255P (Rev 101 F225P) (Thermus thermophilus HB8, UniProt Q5SLP9 SEQ:21-283).
T2 chain: T1 sequence with F255P
Described as above. The conditions noted are these: chain copies: 2 (inferred); label: 5'-FAM. Here is the method:
as §1

For the molecule GTGTAGATCTCGGTGGTCGCCGTATCATTAAAAAA (ssDNA) [5'-FAM 35-mer oligonucleotide], the binding result in data set [1] and in data set [2] was “binds” each time.
